Each block holds one binder with its values, some of them ahead of it.
Tests used:
crystal structure = molecular target: the molecule itself; assay: crystal structure
[1] = molecular target: T1, apo-FabA (E. coli fatty acid 3-hydroxyacyl-ACP dehydratase, unlabeled, not crosslinked) (E. coli, UniProt P0A6Q3 2-172); assay: NMR titration
T1 sequence: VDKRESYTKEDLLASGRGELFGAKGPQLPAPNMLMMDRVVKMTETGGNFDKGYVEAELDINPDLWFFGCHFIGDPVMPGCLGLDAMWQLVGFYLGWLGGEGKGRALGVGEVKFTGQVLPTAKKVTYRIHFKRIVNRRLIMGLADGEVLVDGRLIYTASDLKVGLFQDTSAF

B1: FabA (E. coli fatty acid 3-hydroxyacyl-ACP dehydratase) as in the crosslinked AcpP=FabA complex (enzyme)
chain: T1 sequence
modifications: H70 covalently connected through probe 1 to S36 of AcpP
stoichiometry N (crystal structure): 2

binding result [1]: binds
B2: holo-AcpP (E. coli acyl carrier protein with 4'-phosphopantetheine) (natural protein)
chain: STIEERVKKIIGEQLGVKQEEVTNNASFVEDLGADSLDTVELVMALEEEFDTEIPDEEAEKITTVQAAIDYINGHQA
modifications: 4'-phosphopantetheine (PPant) on S36

binding result [1]: binds
B3: octanoyl-AcpP (E. coli acyl carrier protein with octanoyl-4'-phosphopantetheine) (natural protein)
chain: B2 chain
modifications: octanoyl chain on the PPant arm attached to S36
